In patent US20230416942A1 (YALE UNIVERSITY, published 2023):
Each block holds one binder with its values, some of them ahead of it.

How the values were obtained:
LAIR2 = target: T1, LAIR2 (human, UniProt Q6ISS4 22-152); assay: ELISA, plate-coated recombinant human protein, nanobody-Fc
T1 construct: Recombinant human protein in ELISA
T1 sequence (looked up): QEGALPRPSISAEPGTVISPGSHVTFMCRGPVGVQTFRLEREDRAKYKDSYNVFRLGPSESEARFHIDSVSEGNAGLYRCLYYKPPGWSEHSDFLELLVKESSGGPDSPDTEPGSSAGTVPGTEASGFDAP
Description: (§1) Recombinant human protein was diluted in PBS to a final concentration of 5 μg/mL and was immobilized on 96-well flat bottom MaxiSorp plates (Thermo Fisher Scientific) and placed at 4° C. overnight. Plates were washed three times with 225 μL ELISA wash buffer (PBS with 0.05% Tween 20) and 200 μL ELISA blocking buffer (PBS with 1% Casein) was added to the well. Plates were incubated with shaking for 2 hours at room temperature. ELISA blocking buffer was removed from the wells and appropriate dilutions of recombinant nanobodies in 100 μL ELISA blocking buffer was added to each well. Plates were incubated with shaking for 2 hours at room temperature. Plates were washed 3 times with 225 μL ELISA wash buffer and 1:5000 goat anti-human IgG HRP (Millipore Sigma) in 100 μL ELISA blocking buffer was added to the wells. Plates were incubated with shaking for 1 hour at room temperature. Plates were washed 6 times with 225 μL ELISA wash buffer. 50 μL TMB substrate (BD Biosciences) was added to the wells and plates were incubated for 15 minutes in the dark at room temperature. 50 μL 1 M sulfuric acid was added to the wells and absorbance at 450 nm was measured in a Synergy HTX Multi-Mode Microplate Reader (BioTek).

IL1RN [1] = target: T2, IL1RN (human, UniProt P18510 26-177); assay: as above
T2 construct: Recombinant human protein in ELISA and BLI
Description: as §1

IL1RN [2] = target: T2, IL1RN; assay: BLI, AHC sensor, nanobody-Fc captured, antigen in solution
Source text: (§2) Octet RED96 System (ForteBio) was used to perform kinetic measurement of nanobody binding to antigens. For Anti-Penta-His Biosensors (HIS1K), his-tagged recombinant human proteins were first immobilized onto the biosensors, and recombinant nanobodies fused with human IgG1 were applied to detect binding. For Anti-Human IgG Fc Capture Biosensors (AHC), recombinant nanobodies fused with human IgG1 were first loaded onto the biosensors, and probes were dipped in serial dilutions of recombinant human antigens.

PROCR [3] = target: T3, PROCR (human, UniProt Q9UNN8 18-210); assay: ELISA, plate-coated recombinant human protein, nanobody-Fc
T3 construct: Recombinant human protein in ELISA and BLI
T3 sequence (looked up): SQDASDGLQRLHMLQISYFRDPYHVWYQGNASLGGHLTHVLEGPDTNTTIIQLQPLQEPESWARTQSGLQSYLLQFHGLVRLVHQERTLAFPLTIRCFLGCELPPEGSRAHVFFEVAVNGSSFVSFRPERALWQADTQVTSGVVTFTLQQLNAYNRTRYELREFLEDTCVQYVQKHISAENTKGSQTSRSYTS
Description: as §1

PROCR [4] = target: T3, PROCR; assay: BLI, AHC sensor, nanobody-Fc captured, antigen in solution
Source text: as §2

IL10RA = target: T4, IL10RA (human, UniProt Q13651 22-235); assay: ELISA, plate-coated recombinant human protein, nanobody-Fc
T4 construct: Recombinant human protein in ELISA
T4 sequence (looked up): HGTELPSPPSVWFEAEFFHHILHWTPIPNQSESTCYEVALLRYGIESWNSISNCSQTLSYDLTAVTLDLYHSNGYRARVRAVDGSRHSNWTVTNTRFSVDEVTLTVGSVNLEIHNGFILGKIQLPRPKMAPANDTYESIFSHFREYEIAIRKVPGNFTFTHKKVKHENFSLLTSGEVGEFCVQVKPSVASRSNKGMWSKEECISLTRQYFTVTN
Description: as §1

CCL16 [5] = target: T5, CCL16 (human, UniProt O15467 24-120); assay: as above
T5 construct: Recombinant human protein in ELISA and BLI
T5 sequence (looked up): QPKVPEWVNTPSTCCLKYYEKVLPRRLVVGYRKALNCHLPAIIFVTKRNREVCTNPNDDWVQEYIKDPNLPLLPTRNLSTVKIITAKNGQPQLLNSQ
Description: as §1

CCL16 [6] = target: T5, CCL16; assay: BLI, AHC sensor, nanobody-Fc captured, antigen in solution
Source text: as §2

T2 sequence (P18510 26-177 limits assumed): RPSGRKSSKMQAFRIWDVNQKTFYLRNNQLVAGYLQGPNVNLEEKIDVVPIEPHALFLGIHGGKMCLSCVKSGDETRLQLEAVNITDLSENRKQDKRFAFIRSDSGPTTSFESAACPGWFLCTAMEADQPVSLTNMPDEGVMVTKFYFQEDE

B2: IL1RN_Nb77 (Fc fusion)
chain: QVQLQESGGGLVQAGGSLRLSCAASGTIFTWLVMGWYRQAPGKERELVASIDPGTNTYYADSVKGRFTISRDNAKNTVYLQMNSLKPEDTAVYYCAARYVAGYTVGAYHYYWGQGTQVTVSS
notes: Nanobody expressed and tested as Fc fusion (human IgG1); not shown: human IgG1 Fc (vector pCER243)
- EC50 (IL1RN [1]): 0.168 nM
- Kd (IL1RN [2]): 852 nM

B3: PROCR_Nb87 (Fc fusion)
chain: QVQLQESGGGLVQAGGSLRLSCAASGSISSYPYMGWYRQAPGKERELVASIASGTNTYYADSVKGRFTISRDNAKNTVYLQMNSLKPEDTAVYYCAADSTGPWSHVYWGQGTQVTVSS
notes: as for B2
- EC50 (PROCR [3]): 0.0104 nM
- Kd (PROCR [4]): 92.1 nM

B4: PROCR_Nb88 (Fc fusion)
chain: QVQLQESGGGLVQAGGSLRLSCAASGTIFKLGYMGWYRQAPGKEREFVATITTGATTYYADSVKGRFTISRDNAKNTVYLQMNSLKPEDTAVYYCAADTYGPWAYSYWGQGTQVTVSS
notes: as for B2
- EC50 (PROCR [3]): 0.287 nM
- Kd (PROCR [4]): 62.9 nM

B5: IL10RA_Nb72 (Fc fusion)
chain: QVQLQESGGGLVQAGGSLRLSCAASGTISSEHAMGWYRQAPGKERELVAGITYGSITNYADSVKGRFTISRDNAKNTVYLQMNSLKPEDTAVYYCAVYYYYRATIYHALGYWGQGTQVTVSS
notes: as for B2
- EC50 (IL10RA): 16.9 nM

More lines, now with the values ahead:

- EC50 (LAIR2): 0.379 nM
B1: LAIR2_Nb2.51 (Fc fusion)
chain: QVQLQESGGGLVQAGGSLRLSCAASGSIFYPSAMGWYRQAPGKERELVASIGQGGSTYYADSVKGRFTISRDNAKNTVYLQMNSLKPEDTAVYYCAVQPYSANLHRYWGQGTQVTVSS
notes: as for B2

- EC50 (CCL16 [5]): 0.882 nM
- Kd (CCL16 [6]): 17.4 nM
B6: CCL16_Nb2.1 (Fc fusion)
chain: QVQLQESGGGLVQAGGSLRLSCAASGYISSYWDMGWYRQAPGKERELVAAIAPGTITYYADSVKGRFTISRDNAKNTVYLQMNSLKPEDTAVYYCAASEFDNEAHDYWGQGTQVTVSS
notes: as for B2
